What all share (assay): purified protein
Holding throughout (format): biochemical, uncultured bacterium

Data set [1] has as its system T1, CCCC(=O)Oc1ccc([N+](=O)[O-])cc1.
T1 construct: full-length ORF (906 bp, 302 residues), pET28a, N-terminal His6-tag and thrombin site, tag cutting not mentioned; E. coli BL21(DE3); IMAC and SEC
As to conditions: 50 mM Tris-HCl pH 8.0, 30°C, 0.3% (v/v) triton X-100, 15 nM enzyme.

Data set [2] relates to T2, CCCCCCCC(=O)Oc1ccc([N+](=O)[O-])cc1.
T2 construct: full-length ORF (906 bp, 302 residues), pET28a, N-terminal His6-tag and thrombin site, tag cutting not mentioned; E. coli BL21(DE3); IMAC and SEC
Conditions: 50 mM Tris-HCl pH 8.0, 30°C, 0.3% (v/v) triton X-100, 15 nM enzyme.

In data set [3] the test system is T3, CCCCCCCCCCCC(=O)Oc1ccc([N+](=O)[O-])cc1.
T3 construct: full-length ORF (906 bp, 302 residues), pET28a, N-terminal His6-tag and thrombin site, tag cutting not mentioned; E. coli BL21(DE3); IMAC and SEC
As to conditions: 50 mM Tris-HCl pH 8.0, 30°C, 0.3% (v/v) triton X-100, 50 nM enzyme.

Data set [4] relates to T4, CCCCCCCCCC(=O)Oc1ccc([N+](=O)[O-])cc1.
T4 construct: full-length ORF (906 bp, 302 residues), pET28a, N-terminal His6-tag and thrombin site, tag cutting not mentioned; E. coli BL21(DE3); IMAC and SEC
Conditions: 50 mM Tris-HCl pH 8.0, 30°C, 0.3% (v/v) triton X-100, 15 nM enzyme.

For data set [5], the system named is T5, CCCCC(=O)Oc1ccc([N+](=O)[O-])cc1.
T5 construct: full-length ORF (906 bp, 302 residues), pET28a, N-terminal His6-tag and thrombin site, tag cutting not mentioned; E. coli BL21(DE3); IMAC and SEC
Conditions: 50 mM Tris-HCl pH 8.0, 30°C, 0.3% (v/v) triton X-100, 15 nM enzyme.

The term Km denotes the substrate concentration at which the rate is half of its maximum. Usually Vmax stands for the rate approached at saturating substrate. As usually defined, the kcat is the maximal rate divided by the concentration of active sites. Broadly, the kcat/Km is the turnover number divided by the Michaelis constant.

For the substance Est16 (uncultured bacterium), the Km in data set [1] is 225.1 ± 31.8 µM; in data set [2], 628.6 ± 101.4 µM; in data set [3], 969.5 ± 42.5 µM; in data set [4], 1066.0 ± 116.9 µM; in data set [5], 320.4 ± 32.5 µM. In addition, the Vmax in data set [1] is 206 µM/min; in data set [2] it was 128 µM/min; in data set [3], 22.9 µM/min; in data set [4], 82.7 µM/min; in data set [5], 197 µM/min. The kcat in data set [1] amounted to 220 ± 9.72 s⁻¹; in data set [2], 137 ± 9.19 s⁻¹; in data set [3], 24.5 ± 0.535 s⁻¹; in data set [4], 88.4 ± 4.81 s⁻¹; in data set [5], 211 ± 7.26 s⁻¹. The kcat/Km in data set [1] amounted to 998000 ± 142000 M⁻¹ s⁻¹; in data set [2], 223000 ± 36700 M⁻¹ s⁻¹; in data set [3], 25000 ± 1670 M⁻¹ s⁻¹; in data set [4] it was 83300 ± 10000 M⁻¹ s⁻¹; in data set [5], 665000 ± 66700 M⁻¹ s⁻¹.

The values above are taken from PMC4516351, “Est16, a New Esterase Isolated from a Metagenomic Library of a Microbial Consortium Specializing in Diesel Oil Degradation” (PLoS ONE, 2015).
